Results as given in PMC5300155, “Biochemical and biophysical investigations of the interaction between human glucokinase and pro-apoptotic BAD” (PLoS ONE, 2017).

T1: human pancreatic GCK (Homo sapiens, UniProt P35557)
T1 construct: hexahistidine (N); made in house; host or cells: glucokinase auxotroph BM5340(DE3)
T1 sequence (P35557 1-465): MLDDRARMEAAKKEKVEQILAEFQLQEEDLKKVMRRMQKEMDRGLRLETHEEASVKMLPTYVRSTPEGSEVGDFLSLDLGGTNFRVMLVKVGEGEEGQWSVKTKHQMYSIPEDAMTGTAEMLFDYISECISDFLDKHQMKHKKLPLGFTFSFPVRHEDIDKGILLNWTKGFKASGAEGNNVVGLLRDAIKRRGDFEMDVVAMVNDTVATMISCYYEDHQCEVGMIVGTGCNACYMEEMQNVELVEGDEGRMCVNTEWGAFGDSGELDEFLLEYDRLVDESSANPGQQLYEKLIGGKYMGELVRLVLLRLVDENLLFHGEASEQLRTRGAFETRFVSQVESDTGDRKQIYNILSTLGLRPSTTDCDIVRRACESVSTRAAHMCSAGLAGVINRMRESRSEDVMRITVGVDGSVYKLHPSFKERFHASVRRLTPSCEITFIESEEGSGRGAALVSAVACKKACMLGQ


Experiments:
[1] = target: T1, human pancreatic GCK; assay: Isothermal titration calorimetry with GCK; type: binding; details: peptide up to 50 μM into GCK (10 μM), presence and absence of 0.2 M glucose, potassium phosphate 25 mM, DMSO 5%, 25°C
Description: Recombinant human pancreatic GCK containing an N-terminal hexahistidine tag was produced in the glucokinase auxotroph BM5340(DE3) and purified using a previously described procedure. TEV protease was expressed as a GST-fusion protein from a pGEX plasmid encoding the S219V variant, provided by David Waugh (Addgene plasmid 8827). Expression was induced with IPTG (1 mM) for 4 h at 30°C. Cell pellets were resuspended in Tris buffer (50 mM, pH 8.0) containing NaCl (100 mM), glycerol (10% v/v), benzamidine (1 mM) and dithiothreitol (10 mM) and lysed via French Press. Polyethyleneimine (0.1%) was added to the lysate and protein was purified on a glutathione-affinity column (GSTrap, GE Sciences). TEV protease was flash frozen and stored at -80°C for up to 1 month.
Isothermal titration calorimetry was performed at 25°C using a MicroCal VP-ITC (GE Healthcare) instrument. Bcl-xL (100 μM) in BAD buffer (0.1 M Tris, 0.1 M KCl, 0.5 M arginine, 2.5 mM CHAPS, 5 mM TCEP, 10% glycerol, pH 8.5) was titrated into the calorimeter cell containing size-exclusion chromatography purified BAD-GST (10–18 μM) in 4 μL injections. A 21-residue phosphorylated peptide containing the BH3 domain of BAD was synthesized and purified to >95% by Peptide2.0 (pBH3 = NLWAAQRYGRELRRM(p)SDKFVD). The peptide (300 μM) in potassium phosphate buffer (25 mM) containing KCl (25 mM), TCEP (4 mM) and DMSO (5%) with and without glucose (200 mM) was titrated into the cell containing GCK (10 μM) previously dialyzed against the same buffer. GCK (100 μM) in BAD buffer was titrated into the cell containing S118D BAD-GST (10–15 μM) in 13 μL injections. Data were analyzed using Origin software.

[2] = target: T2, Bcl-xL (Homo sapiens, UniProt Q07817, DEL45-84); assay: Isothermal titration calorimetry of BAD-GST with Bcl-xL; type: binding; details: ITC, 25°C; Bcl-xL (100 μM) titrated into BAD-GST (10–18 μM), 4 μL injections, BAD buffer pH 8.5; average of two independent experiments
T2 construct: made in house
Description: Exon 1 of human bcl-xl lacking the C-terminal residues 189–233 was obtained from Stanley Korsmeyer (Addgene plasmid 8755) and site-directed mutagenesis was performed to create the Δ45–84, Δ210–233 variant. Bcl-xL was expressed and purified using a modified procedure described previously. Briefly, Bcl-xL was purified by nickel affinity chromatography and dialyzed against potassium phosphate buffer (20 mM, pH 7.4) containing NaCl (50 mM), EDTA (1 mM), and DTT (10 mM). Protein was applied to a Superdex 200 10/30 HR size-exclusion column, at a flow rate of 0.02 mL/min, to remove aggregate and oligomers prior to binding assays.
Isothermal titration calorimetry was performed at 25°C using a MicroCal VP-ITC (GE Healthcare) instrument. Bcl-xL (100 μM) in BAD buffer (0.1 M Tris, 0.1 M KCl, 0.5 M arginine, 2.5 mM CHAPS, 5 mM TCEP, 10% glycerol, pH 8.5) was titrated into the calorimeter cell containing size-exclusion chromatography purified BAD-GST (10–18 μM) in 4 μL injections. A 21-residue phosphorylated peptide containing the BH3 domain of BAD was synthesized and purified to >95% by Peptide2.0 (pBH3 = NLWAAQRYGRELRRM(p)SDKFVD). […] Data were analyzed using Origin software.

[3] = target: T1, human pancreatic GCK; assay: Analytical ultracentrifugation sedimentation velocity of equimolar mixtures with GCK; type: binding; details: equimolar mixture, BAD buffer pH 8.5, 20°C, 50,000 x g
Description: (§1) Sedimentation velocity experiments were conducted with an Optima XLI Ultracentrifuge (Beckman Coulter) using a four-hole rotor with three 420 μL samples in standard double-sector Epon centerpieces equipped with sapphire windows. Absorbance and interference data were collected simultaneously. Size-exclusion purified proteins were concentrated to OD280 nm = 0.3–1.0 prior to centrifugation. For complex formation, proteins were mixed in a 1:1 molar ratio in BAD buffer (0.1 M Tris, 0.1 M KCl, 0.5 M arginine, 2.5 mM CHAPS, 5 mM TCEP, 10% glycerol, pH 8.5) and incubated on ice 30 min prior to the start of the experiment. Experiments were carried out at 20°C and 50,000 x g. Data were analyzed with Ultrascan III software using a minimum of 70 scans per sample for analysis. Van Holde-Weischet analysis was performed to obtain S20,W values.

[4] = target: T2, Bcl-xL; assay: Analytical ultracentrifugation sedimentation velocity of 1:1 mixture BAD-GST and Bcl-xL; type: binding; details: 1:1 mixture of BAD-GST and Bcl-xL, 20°C, 50,000 x g, BAD buffer pH 8.5
Description: as §1

[5] = Analytical ultracentrifugation sedimentation velocity (oligomerization, shape); type: physicochemical; details: 20°C, 50,000 x g
Description: as §1

[6] = Proteolysis and aggregation of recombinant BAD produced under native conditions; type: physicochemical
Description: Under native conditions, cell pellet was resuspended and lysed in HEPES buffer (50 mM, pH7.6) containing NaCl (50 mM), imidazole (25 mM), glycerol (5%), and DTT (5 mM). PMSF, benzamidine, a protease inhibitor cocktail (Pierce), and BSA (0.1 mg/mL) were added to the lysis buffer in attempts to reduce protein degradation. Clarified lysate was applied to a HisTrap affinity column and following purification, purified BAD-GST was applied to a Superdex 200 10/30 HR size-exclusion column, at a flow rate of 0.02 mL/min.
Protein samples were excised from SDS-PAGE gels and exposed to trypsin digestion prior to analysis by mass spectroscopy. MALDI-TOF was performed on a Shimadzu Axima CFP MALDI-TOF in positive ion, reflectron mode. Linear trap quadripole (LTQ) Orbitrap MS was performed on a Thermo LTQ Orbitrap Velos HPLC-nESI-LIT-Orbitrap.
To facilitate biochemical characterization of the BAD:GCK complex, we sought a method to produce functional, recombinant human BAD. Several groups have used microbial hosts to produce BAD, however, functional characterization of the resulting protein was limited.

T2 sequence (Q07817 with tags, fused parts or gaps DEL45-84): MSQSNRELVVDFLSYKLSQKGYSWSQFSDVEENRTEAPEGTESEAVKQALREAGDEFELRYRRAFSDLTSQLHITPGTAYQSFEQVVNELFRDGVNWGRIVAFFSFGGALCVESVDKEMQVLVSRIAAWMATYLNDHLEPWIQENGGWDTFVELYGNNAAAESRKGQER

Molecule	Heat change on addition to GCK (ITC) [1]	Heat change on addition to GCK (ITC) ([1]; listed as phosphorylated BH3 peptide)	Kd [2] [nM]	Complex with GCK by analytical ultracentrifugation [3]	Sedimentation coefficient [4]	Molecular weight from sedimentation velocity (oligomerization state) ([5]; predicted monomer BAD-GST 47 kDa, dimer) [kDa]	Frictional ratio f/f0 ([5]; sedimentation velocity, unity = compact sphere)	Proteolysis during recombinant production ([6]; MALDI-TOF, protease inhibitors failed to alleviate degradation)	Aggregation when produced under native conditions ([6]; native conditions, E. coli)
NLWAAQRYGRELRRM(p)SDKFVD [pBH3, 21-residue phosphorylated peptide containing the BH3 domain of BAD]	No detectable heat change	do not indicate an interaction	–	–	–	–	–	–	–
BAD-GST: recombinant human BAD with N-terminal hexahistidine tag and C-terminal GST fusion, TEV consensus sequence between (protein, left off: His6, N-terminal, state not stated | GST, C-terminal, kept) MFQIPEFEPSEQEDSSSAERGLGPSPAGDGPSGSGKHHRQAPGLLWDASHQQEQPTSSSHHGGAGAVEIRSRHSSYPAGTEDDEGMGEEPSPFRGRSRSAPPNLWAAQRYGRELRRMSDEFVDSFKKGLPRPKSAGTATQMRQSSSWTRVFQSWWDRNLGRGSSAPSQ	–	–	7	does not reveal a higher molecular weight component indicative of complex formation	2.1	98	3.9	extensive C-terminal proteolysis	leads to aggregation of the protein
